Test results: IntAct's records for PubMed 22474355

B1: RNA-silencing factor ers1 (Schizosaccharomyces pombe (strain ATCC 38366 / 972)), O94717 (parent)
chain: MGKVSANNQSGFFKFYIDTALLLNAEFISSFTNCINSEYNGKVKISYSSSSQQFKVIVYEEHKREAFSLFEEIVQKLKRESTVYKKPRLDIHPFGQLHYDFTTLLNFQRYLDLGYGIEDVKIKENEDIVKSKVGKKPTSSDFYIPCLIKPKIITPFEWEGNFKQVIYSPTVYNGSFKRLFYLPDNNDLLKEFAHATNTKYKASLKDNKIVVLANNDQDINAMLEKMKHIENLVSQKVYEYPEETLVYAGKIAPCQLKFLKLKFENEILYTAMHTTSIFKSVFNILGSFYTMRLLRNKHDGDSYELVPVFAKNPSKTPPCNDNFKIFSDDIKLIGCKIFAGVSLNFSSPKPAHRFYELNKTSSNLSIPVLQKPSNFHSSSTELSDNSIHQGRRAVDPVVNQNNPSNFEEMIMNKLNKLPTIDKQILGTSSLTHFQDKTTAIEHSINKSNSKQPPRFKFQLPPRPTSNTLPLEPEEELVTRYSVSSDGNTVDEAITKQSQTFQLVNSNEFNEVNANDVHKSLRQNCAKLDFDDSKSKNLLSVECLELDKGSDCSTPKSGSLTPSIDMKFLRLQDEKMDDLGDNYYTILMSSNPVSSYGVGSLYLFQPKIVCSEKYINHEEIDNMNLKSLHRWLSRSLHVLQSFSGEIELNLEFGVILYPNISSDVSACSHGFMNIYKDLNLPRSYFADCITKSVSNIDSLLNTPVKILFGRTEYTYPLIEHEVLDSKNYFVFKGSLLFTDDKRNKTEDSTVFFSMICSSKLDQFAFYKDSKQSSTCTINFPLALWDSRLRIETKVPLNDAILTEFSKSIRFRNVNKDLLLVFGNMEDRVIIHSVTRINENSVPFNKNLLPHSLEFILKCSKVKSYDISPSSINSKEAFVCLDRSKESKPIESCFSLSIQSVYMQSQFKYNNSIRAGETAPWKLANKQFIGGAITENVSDLYTAAIIMVNQLGGIHPTI
partner: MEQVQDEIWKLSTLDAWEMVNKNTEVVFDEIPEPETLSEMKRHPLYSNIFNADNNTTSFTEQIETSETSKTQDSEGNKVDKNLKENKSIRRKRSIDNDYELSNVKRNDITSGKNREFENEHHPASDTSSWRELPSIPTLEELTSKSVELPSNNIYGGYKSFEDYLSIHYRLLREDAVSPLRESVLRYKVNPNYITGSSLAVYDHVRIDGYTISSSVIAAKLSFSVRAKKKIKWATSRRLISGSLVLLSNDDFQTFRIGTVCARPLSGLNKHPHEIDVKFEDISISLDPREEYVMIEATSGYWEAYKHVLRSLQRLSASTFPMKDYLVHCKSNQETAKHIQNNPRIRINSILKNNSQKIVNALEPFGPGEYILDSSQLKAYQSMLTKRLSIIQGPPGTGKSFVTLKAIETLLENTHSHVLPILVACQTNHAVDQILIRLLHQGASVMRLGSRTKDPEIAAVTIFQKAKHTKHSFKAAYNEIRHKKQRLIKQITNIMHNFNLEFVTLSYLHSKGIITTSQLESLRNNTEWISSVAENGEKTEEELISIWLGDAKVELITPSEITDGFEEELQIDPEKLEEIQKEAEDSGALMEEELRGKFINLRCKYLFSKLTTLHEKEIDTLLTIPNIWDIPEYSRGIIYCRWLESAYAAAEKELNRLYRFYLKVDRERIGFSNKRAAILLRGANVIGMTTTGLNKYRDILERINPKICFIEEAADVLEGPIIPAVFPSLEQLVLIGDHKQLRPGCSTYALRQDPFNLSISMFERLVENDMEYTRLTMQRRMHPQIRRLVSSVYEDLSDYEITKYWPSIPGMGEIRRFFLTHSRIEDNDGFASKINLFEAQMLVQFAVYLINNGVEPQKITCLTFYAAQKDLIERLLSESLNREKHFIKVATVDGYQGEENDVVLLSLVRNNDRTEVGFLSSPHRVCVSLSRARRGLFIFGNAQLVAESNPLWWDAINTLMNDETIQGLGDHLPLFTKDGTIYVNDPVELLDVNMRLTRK
B2: RNA-silencing factor ers1 (Schizosaccharomyces pombe (strain ATCC 38366 / 972)), O94717 (parent)
chain: B1 chain
partner: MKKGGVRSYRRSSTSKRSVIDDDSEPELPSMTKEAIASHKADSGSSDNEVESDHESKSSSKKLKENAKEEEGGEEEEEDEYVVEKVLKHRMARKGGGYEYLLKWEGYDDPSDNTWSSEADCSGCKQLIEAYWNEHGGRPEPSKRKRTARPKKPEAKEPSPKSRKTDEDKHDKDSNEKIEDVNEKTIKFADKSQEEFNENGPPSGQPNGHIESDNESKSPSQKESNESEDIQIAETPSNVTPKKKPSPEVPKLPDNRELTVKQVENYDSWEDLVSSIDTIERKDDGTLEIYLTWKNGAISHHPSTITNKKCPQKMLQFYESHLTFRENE

Variants of: B1
Details: with hrr1_schpo hrr1, O74465

Variant	effect of a mutation on the interaction
S234P	decreasing interaction strength

Variants of: B2
Details: with swi6_schpo swi6, P40381

Variant	effect of a mutation on the interaction
S234P	decreasing interaction strength
